Results reported in patent US20250296999A1.

Target: alpha v beta 3 integrin on human podocytes (human) (UniProt P06756)
Sequence (P06756 31-1048, chain 1 of 2): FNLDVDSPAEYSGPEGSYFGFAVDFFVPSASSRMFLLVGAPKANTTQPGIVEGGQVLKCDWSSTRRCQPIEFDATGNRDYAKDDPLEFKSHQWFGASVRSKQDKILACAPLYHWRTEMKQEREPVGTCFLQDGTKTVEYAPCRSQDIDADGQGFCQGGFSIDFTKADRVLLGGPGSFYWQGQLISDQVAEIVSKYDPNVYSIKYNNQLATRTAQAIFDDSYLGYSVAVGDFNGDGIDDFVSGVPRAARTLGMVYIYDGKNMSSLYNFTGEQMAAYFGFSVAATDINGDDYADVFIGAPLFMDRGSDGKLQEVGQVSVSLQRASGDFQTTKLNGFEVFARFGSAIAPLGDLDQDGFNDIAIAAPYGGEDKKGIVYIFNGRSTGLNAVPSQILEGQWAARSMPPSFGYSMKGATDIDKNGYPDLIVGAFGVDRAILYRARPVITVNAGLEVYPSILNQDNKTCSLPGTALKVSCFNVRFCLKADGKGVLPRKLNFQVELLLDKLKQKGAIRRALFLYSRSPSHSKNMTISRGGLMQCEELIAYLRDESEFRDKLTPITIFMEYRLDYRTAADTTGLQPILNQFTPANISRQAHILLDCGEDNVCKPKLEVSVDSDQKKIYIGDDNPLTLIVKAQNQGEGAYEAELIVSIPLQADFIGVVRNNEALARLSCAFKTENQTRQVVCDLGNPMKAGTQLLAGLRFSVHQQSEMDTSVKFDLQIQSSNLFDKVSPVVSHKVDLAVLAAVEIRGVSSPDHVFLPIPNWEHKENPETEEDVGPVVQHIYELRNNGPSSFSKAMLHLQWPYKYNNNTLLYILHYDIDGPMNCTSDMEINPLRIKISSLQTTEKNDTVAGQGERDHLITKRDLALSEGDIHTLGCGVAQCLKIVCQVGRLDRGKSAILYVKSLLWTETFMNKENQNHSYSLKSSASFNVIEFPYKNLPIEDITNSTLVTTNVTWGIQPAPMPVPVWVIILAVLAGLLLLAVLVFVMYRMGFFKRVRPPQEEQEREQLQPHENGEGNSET
Sequence (P05106 27-788, chain 2 of 2, further chain): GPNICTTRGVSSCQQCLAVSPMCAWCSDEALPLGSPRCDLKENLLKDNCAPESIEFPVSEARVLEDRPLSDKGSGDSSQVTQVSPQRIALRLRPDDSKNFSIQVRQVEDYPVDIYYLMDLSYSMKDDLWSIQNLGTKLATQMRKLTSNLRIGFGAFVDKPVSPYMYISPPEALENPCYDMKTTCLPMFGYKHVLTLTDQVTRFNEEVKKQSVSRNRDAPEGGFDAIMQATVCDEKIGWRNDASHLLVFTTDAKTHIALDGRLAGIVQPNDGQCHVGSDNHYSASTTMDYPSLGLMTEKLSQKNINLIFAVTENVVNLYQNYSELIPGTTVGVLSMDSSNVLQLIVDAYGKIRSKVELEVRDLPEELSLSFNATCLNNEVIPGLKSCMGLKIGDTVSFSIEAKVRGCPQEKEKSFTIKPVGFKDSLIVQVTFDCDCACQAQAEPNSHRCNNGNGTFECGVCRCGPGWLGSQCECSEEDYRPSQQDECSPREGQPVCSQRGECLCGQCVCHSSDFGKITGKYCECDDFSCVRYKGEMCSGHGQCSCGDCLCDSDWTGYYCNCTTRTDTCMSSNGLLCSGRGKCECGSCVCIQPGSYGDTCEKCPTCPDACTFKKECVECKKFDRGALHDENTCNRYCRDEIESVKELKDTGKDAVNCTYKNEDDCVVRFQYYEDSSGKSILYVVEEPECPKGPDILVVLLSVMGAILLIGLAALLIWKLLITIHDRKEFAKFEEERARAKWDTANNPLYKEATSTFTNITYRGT

EC50 (read off the curve): 2 ng/mL
Substance: human D2D3 protein (C-terminal uPAR fragment, D2D3 protein with Linker) (from UniProt Q03405 100-303) (receptor)
